Data: the supplement of paper PMC9732359
± gives the uncertainty stated by the source.

Experiment: protein stability index of a GFP-peptide fusion (yeast GPS) (PSI 1-4); higher = more stable; sorted into four equal gates, so the index is relative within each strain
How it was run: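 Mid-log yeast cultures in leucine-free medium, carrying a pooled plasmid library, were sorted into four equal gates by their GFP/Cherry fluorescence ratio. Each plasmid expressed Cherry along with GFP fused upstream of a tiled 17-residue yeast protein peptide. Plasmids recovered from each gate were PCR-amplified and Illumina-sequenced, with reads assigned to strains by barcodes. The protein stability index was obtained by summing each gate's read frequency weighted by its gate number.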

Sequence | protein stability index (doa10∆) | protein stability index (pdr5∆) | protein stability index (san1∆) | protein stability index (ubr1∆)
NLTEFVQMDKIRKIVRK [AAR2] | 2.77 ± 0.14 | 2.43 ± 0.1 | 1.9 ± 0.13 | 2.34 ± 0.13
DKIAVAVAGLTADAEIL [PRE9] | 1.5 ± 0.098 | 1.65 ± 0.077 | 1.25 ± 0.21 | 2.1 ± 0.075
QIVQVLKQPPFQITLSS [SSN8] | 2.12 ± 0.062 | 2.06 ± 0.074 | 1.86 ± 0.094 | 2.54 ± 0.081
LLKQYPKDSSSTFREWK [YJR042W/NUP85] | 2.54 ± 0.045 | 2.6 ± 0.048 | 2.71 ± 0.038 | 2.81 ± 0.042
NSKVNKLNIETMRKISS [DSN1] | 2.5 ± 0.17 | 2.43 ± 0.11 | 2.13 ± 0.12 | 2.95 ± 0.07
TISQALLNAADRDALSG [PUP3] | 2.82 ± 0.12 | 2.11 ± 0.097 | 1.95 ± 0.17 | 1.95 ± 0.068
DKLYIHFVQEEPLAFYL [RGR1] | 2.21 ± 0.041 | 2.35 ± 0.045 | 2.4 ± 0.045 | 2.32 ± 0.033
EKVSSVLSALEGKSVDE [RPP2A] | 2.57 ± 0.077 | 2.09 ± 0.049 | 2.16 ± 0.078 | 1.87 ± 0.038
VIQQDKYQKALHYLKKF [SRP72] | 1.61 ± 0.098 | 1.26 ± 0.079 | 1.2 ± 0.14 | 2.15 ± 0.1
EIILDFLQDKVQIKDVN [CSI1] | 3.12 ± 0.086 | 2.83 ± 0.055 | 2.36 ± 0.076 | 3.17 ± 0.051
MTKTITVAHIQYDFKAV [RPN14] | 2.42 ± 0.083 | 3.09 ± 0.095 | 2.4 ± 0.063 | 2.71 ± 0.043
FTNIISRNKALELNLSV [YJL039C/NUP192] | 2.64 ± 0.11 | 2.78 ± 0.087 | 2.62 ± 0.12 | 2.69 ± 0.088
PKNVPTSKWLNSITSGG [YDL116W/NUP84] | 2.35 ± 0.072 | 2.56 ± 0.068 | 2.23 ± 0.14 | 2.6 ± 0.064
ACGAFININEFALPAGS [CDC53] | 2.36 ± 0.096 | 2.53 ± 0.091 | 1.99 ± 0.12 | 1.87 ± 0.074
TKSETKQENETMQPPYI [MED11] | 2.95 ± 0.051 | 2.85 ± 0.059 | 2.7 ± 0.1 | 2.96 ± 0.042
NIVMDSKQNGIEQSITK [SSN8] | 3.08 ± 0.16 | 2.59 ± 0.28 | 2.61 ± 0.18 | 3.15 ± 0.12
ESCEDILDLKEFDRRIL [RTT102] | 2.78 ± 0.16 | 3.37 ± 0.16 | 3.23 ± 0.072 | 3.07 ± 0.092
VKDFTSLGFNEVFSRPE [RPO21] | – | 2.56 ± 0.27 | 2.96 ± 0.27 | 2.9 ± 0.19
SVLRDTLVAQNLKQANN [SMC4] | 2.68 ± 0.082 | 2.53 ± 0.06 | 2.48 ± 0.052 | 2.33 ± 0.035
MAFNLLGLLTPEVVELC [FAS2] | 1.8 ± 0.085 | 1.56 ± 0.12 | 1.22 ± 0.22 | 2.47 ± 0.12
LNLINAKLWFYIYLSHE [RPN3] | 1.43 ± 0.059 | 1.23 ± 0.056 | 1.28 ± 0.095 | 1.44 ± 0.065
SDAVMAEHSQNKIDQSL [YJL041W/NSP1] | 3.08 ± 0.064 | 3.18 ± 0.044 | 3.08 ± 0.052 | 3.07 ± 0.056
IQHIAAAMVPFIKFKLI [CDC53] | 2.42 ± 0.048 | 2.42 ± 0.043 | 2.42 ± 0.056 | 2.43 ± 0.048
QELEKRMPMDFKGVIVK [PRE1] | 1.77 ± 0.18 | – | 2.8 ± 0.12 | 1.81 ± 0.071
YLLISKENKKRKNFKMG [IRR1] | 2.91 ± 0.097 | 3.24 ± 0.14 | 3.02 ± 0.06 | 3.11 ± 0.078
GLPTDAYVAIEQVKDDG [RPN8] | 2.61 ± 0.076 | 1.92 ± 0.1 | 2.59 ± 0.23 | 2.34 ± 0.08
